Results on seven sequences are retold here after the DeepSol protein solubility set.

A short description of the data set: soluble on expression in E. coli; label from the status in PepcDB or PDB records.
On to “GAMDIVVNDDLSCRFLEGFNTRDALCKKISMNTCDEGDPFFVADLGDIVRKHETWKKCLPRVTPFYAVKCNDDWRVLGTLAALGTGFDCASNTEIQRVRGIGVPPEKIIYANPCKQISHIRYARDSGVDVMTFDCVDELEKVAKTHPKAKMVLRISTDDSLARCRLSVKFGAKVEDCRFILEQAKKLNIDVTGVSFHVGSGSTDASTFAQAISDSRFVFDMGTELGFNMHILDIGGGFPGTRDAPLKFEEIAGVINNALEKHFPPDLKLTIVAEPGRYYVASAFTLAVNVIAKKVTPGVQTDVGAHAESNAQSFMYYVNDGVYGSFNCILYDHAVVRPLPQREPIPNEKLYPSSVWGPTCDGLDQIVERYYLPEMQVGEWLLFEDMGAYTVVGTSSFNGFQSPTIYYVVSGLPDHVVRELKSQKS”, for which the “soluble on expression in E. coli” value is given as “soluble”.

As to “GAMEATEIISTLSNGLIASHYGVSFFTIQSFVSSLSNTSTLKNMLYVLSTAVEFESVPLRKGDRALLVKLSKRLPLRFPEHTSSGSVSFKVFLLLQAYFSRLELPVDFQNDLKDILEKVVPLINVVVDILSANGYLNATTAMDLAQMLIQGVWDVDNPLRQIPHFNNKILEKCKEINVETVYDIMALEDEERDEILTLTDSQLAQVAAFVNNYPNVELTYSLNNSDSLISGVKQKITIQLTRDVEPENLQVTSEKYPFDKLESWWLVLGEVSKKELYAIKKVTLNKETQQYELEFDTPTSGKHNLTIWCVCDSYLDADKELSFEINVK”, the “soluble on expression in E. coli” value is given as “soluble”.

For the sequence “GDKVIVMGHKRPDLDAIGAAIGVSRFASMNNLEAFIVLNDSDIDPTLRRVMDEIDKKPELKERFVTSDEAWDMMTSKTTVVVVDTHKPEMVLDENVLNKANRKVVIDHHRRGESFISNPLLVYMEPYASSTAELVTELLEYQPTEQRLTRLESTVMYAGIIVDTRNFTLRTGSRTFDAASYLRAHGADTILTQHFLKDDV”, the “soluble on expression in E. coli” value is given as “not soluble”.

For the sequence “GEETRTEVEKKNYMNNAEEAKDVLLGVYRTNTLDAMYGYYLSILFNLGTDISQVEGSGNENFRIIPTNSFPTTQSEVQQTWAALYTGIYRANDFLERISNKIGSYTTTDKKLATLYIAEARALRGMFYFELVRRFGNVVLMTSTQMSNQNPATYVQSAPEKVYEYIEDDLLYACDILPYATDDQYRESNDYRFSKGAALGLLTKVYATWAGYPVKDESKWEAAAKTARILVESGKHGLLKDYEQLWKNTCNGTWDPTESLIEISFYSPTVSGNSDPVGRIGKWNGVKTTAIAGVRGSCAANVKVVHTFVLDWREDVSDIRRDLSIANYQYTDTKKSLWVAGASDTDESAAEKDADPTKAQKNKQNYTPAKWDIQKYVTTNSFINNDKSNVNWYFLRYADVLLLYAEALNEWKHGPDAEAYNAINAVRRRGYGNPSNTSACDLPQGLDETSFREAVRKERSYELSFEGHRRQDLIRWGIYYKTVQATAKELGYWWEGTGSPNYSVATYTEEGKHELFPIPQRDMDLCIQFNQNPKW”, the “soluble on expression in E. coli” value is recorded as “soluble”.

With “GEFGDEDLEELCPVCGDKVSGYHYGLLTCESCKGFFKRTVQNNKRYTCIENQNCQIDKTQRKRCPYCRFQKCLSVGMKLEAVRADRMRGGRNKFGPMYKRDRALKQQKKALIR”, the “soluble on expression in E. coli” value is recorded as “soluble”.

In the case of “GFASHQYVNHVEKQRPIVTLAKHPKKVLFFYRDDCPDCQAIFHRIYWHNVISHNVVFINMNQTQNRHYIQQYQLTSVPTLIHGKQRYTGTNQQRIKQIVGD”, the “soluble on expression in E. coli” value is listed as “not soluble”.

As to “GFFDLRNELPMNCRARRKVDLSDGALKDIARIDAIWSEQMAKFPDAFLFGEWSIADAMYAPVALRFETYGIELSQGAKAYQQKVLASHAVQKWLAEASQETDIVEEDEAGVEV”, the “soluble on expression in E. coli” value is listed as “not soluble”.
